Data: US11912777 (NANJING LEADS BIOLABS, dated 2024)

Tests used:
[1] = target: T1, human 4-1BB (Sino Biological, Cat #10041-H08H) (human, UniProt Q07011 24-186); assay: ELISA, protein coated
T1 construct: Bought reagent coated on ELISA plates

[2] = target: T2, human CD40 (Sino Biological, Cat #10774-H08H) (human, UniProt P25942 21-193); assay: ELISA, protein coated
T2 construct: Bought reagent coated on ELISA plates

[3] = target: T3, human OX40 (Sino Biological, Cat #10481-H08H) (human, UniProt P43489 29-216); assay: ELISA, protein coated
T3 construct: Bought reagent coated on ELISA plates
T3 sequence (looked up): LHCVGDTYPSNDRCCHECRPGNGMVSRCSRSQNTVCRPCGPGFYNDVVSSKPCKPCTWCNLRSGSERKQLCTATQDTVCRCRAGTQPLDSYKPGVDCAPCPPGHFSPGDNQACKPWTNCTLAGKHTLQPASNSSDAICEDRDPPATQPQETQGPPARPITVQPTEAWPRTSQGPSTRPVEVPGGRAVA

[4] = target: T4, human GITR (Sino Biological, Cat #13643-H08H) (human, UniProt Q9Y5U5 26-161); assay: ELISA, protein coated
T4 construct: Bought reagent coated on ELISA plates
T4 sequence (looked up): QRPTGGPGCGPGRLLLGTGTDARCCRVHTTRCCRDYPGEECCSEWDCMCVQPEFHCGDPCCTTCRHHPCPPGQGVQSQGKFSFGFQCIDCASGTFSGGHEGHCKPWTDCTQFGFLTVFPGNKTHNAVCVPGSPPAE

[5] = target: T5, human CD27 (Sino Biological, Cat #10039-H31H) (human, UniProt P26842 20-192); assay: ELISA, protein coated
T5 construct: Bought reagent coated on ELISA plates
T5 sequence (looked up): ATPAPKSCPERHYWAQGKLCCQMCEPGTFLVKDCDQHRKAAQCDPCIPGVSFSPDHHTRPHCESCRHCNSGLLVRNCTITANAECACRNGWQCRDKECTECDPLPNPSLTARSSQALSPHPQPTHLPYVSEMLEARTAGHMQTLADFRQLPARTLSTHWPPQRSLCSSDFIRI

[6] = target: T6, human HVEM (Sino Biological, Cat #10334-H03H) (human, UniProt Q92956 39-202); assay: ELISA, protein coated
T6 construct: Bought reagent coated on ELISA plates
T6 sequence (looked up): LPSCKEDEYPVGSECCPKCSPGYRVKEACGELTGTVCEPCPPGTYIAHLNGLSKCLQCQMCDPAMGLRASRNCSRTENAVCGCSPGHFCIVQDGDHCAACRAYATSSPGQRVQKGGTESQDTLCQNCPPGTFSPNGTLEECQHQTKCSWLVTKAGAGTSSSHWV

[7] = target: T7, extracellular region of mouse TNFR2 (mouse, UniProt P25119 23-258); assay: ELISA, TNFR2 protein coated at 0.5 µg/mL
T7 construct: The entry includes a signal peptide marked only by underlining (not visible here)
T7 sequence: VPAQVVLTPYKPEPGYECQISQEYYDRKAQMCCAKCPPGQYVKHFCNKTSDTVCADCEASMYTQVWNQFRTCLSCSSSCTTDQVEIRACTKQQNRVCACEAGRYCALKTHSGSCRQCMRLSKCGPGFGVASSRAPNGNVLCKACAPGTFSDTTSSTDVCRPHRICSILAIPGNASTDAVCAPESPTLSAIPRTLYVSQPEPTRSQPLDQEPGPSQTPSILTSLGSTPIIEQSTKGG

Q4A = target: T8, Q4A; assay: ELISA on coated human TNFR2 mutant Q4A; lower panel
T8 construct: also called human TNFR2 Q4A
T8 receptor: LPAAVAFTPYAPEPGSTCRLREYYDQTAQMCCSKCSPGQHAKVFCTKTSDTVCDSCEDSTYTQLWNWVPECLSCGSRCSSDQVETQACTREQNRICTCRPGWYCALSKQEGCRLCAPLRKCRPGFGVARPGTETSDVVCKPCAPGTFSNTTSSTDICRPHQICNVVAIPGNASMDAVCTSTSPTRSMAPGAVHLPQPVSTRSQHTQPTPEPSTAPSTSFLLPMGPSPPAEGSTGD

E13A = target: T9, E13A; assay: ELISA on coated human TNFR2 mutant E13A; lower panel
T9 construct: also called human TNFR2 E13A
T9 receptor: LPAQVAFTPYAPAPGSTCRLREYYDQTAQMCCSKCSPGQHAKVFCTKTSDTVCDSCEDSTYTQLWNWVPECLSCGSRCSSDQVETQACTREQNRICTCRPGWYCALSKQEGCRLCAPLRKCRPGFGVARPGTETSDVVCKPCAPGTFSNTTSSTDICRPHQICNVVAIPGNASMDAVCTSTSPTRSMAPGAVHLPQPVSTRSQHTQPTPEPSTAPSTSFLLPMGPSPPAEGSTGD

[8] = target: T10, His-tagged human TNFR2 (Sino Biological, Cat #10417-H08H) (human, UniProt P20333 23-257); assay: BLI (Octet RED 96), antibody on Fc capture tips, His-tagged TNFR2 as analyte, 1:1 global fit
T10 construct: Bought reagent, analyte in BLI; also called recombinant human TNFR2; not shown: His tag
T10 sequence (looked up): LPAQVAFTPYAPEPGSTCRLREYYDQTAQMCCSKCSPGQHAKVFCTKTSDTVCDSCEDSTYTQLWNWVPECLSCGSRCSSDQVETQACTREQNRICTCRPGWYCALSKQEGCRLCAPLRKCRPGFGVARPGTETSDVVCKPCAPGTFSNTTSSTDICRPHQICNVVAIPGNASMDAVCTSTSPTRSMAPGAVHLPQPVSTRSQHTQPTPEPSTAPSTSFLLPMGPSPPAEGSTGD

[9] = target: T11, His-tagged cynomolgus monkey TNFR2 (Sino Biological, Cat #90102-C08H) (cynomolgus monkey, UniProt A0A2K5VET2 132-366); assay: as above
T11 construct: Bought reagent, analyte in BLI; also called Cynomolgus TNFR2; recombinant cynomolgus monkey TNFR2; not shown: His tag
T11 sequence: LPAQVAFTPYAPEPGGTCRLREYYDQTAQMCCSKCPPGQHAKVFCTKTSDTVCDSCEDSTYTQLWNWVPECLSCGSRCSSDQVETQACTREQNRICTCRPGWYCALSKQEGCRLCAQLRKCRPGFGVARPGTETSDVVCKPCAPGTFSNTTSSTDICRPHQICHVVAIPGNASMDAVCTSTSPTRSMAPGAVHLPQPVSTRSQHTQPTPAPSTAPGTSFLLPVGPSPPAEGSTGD

T2 sequence (P25942 21-193 limits assumed): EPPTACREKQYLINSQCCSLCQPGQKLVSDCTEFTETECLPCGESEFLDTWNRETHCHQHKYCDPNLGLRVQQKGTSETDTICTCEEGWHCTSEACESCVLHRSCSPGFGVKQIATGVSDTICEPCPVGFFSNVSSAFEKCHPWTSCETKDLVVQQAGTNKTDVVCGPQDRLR

binding result (Q4A): binds
binding result (E13A): binds
Kd [8]: 5.32 nM
koff [8]: 0.00192 s⁻¹
kon [8]: 361000 M⁻¹ s⁻¹
Kd [9]: 3.62 nM
koff [9]: 0.00185 s⁻¹
kon [9]: 512000 M⁻¹ s⁻¹
B1: humanized antibody hu3-E (Hu3-H3/Hu3-L1) (antibody, human IgG1, kappa, V domains shown)
VH: QIQLVQSGAEVKKPGASVKVSCKASGYTFTTYGMSWVRQAPGQGLEWMGWIHTYSGVPTYADDFKGRFAFTLDTSTSTAYMELRSLRSDDTAVYYCARGLYGVDYWGQGTLVTVSS
VL: EIVMTQSPATLSLSPGERATLSCKASENVVTYVSWYQQKPGQAPRLLIYGASNRYTGIPARFSGSGSATDFTLTISSLQPEDFAVYYCGQSYTYPYTFGQGTKLEIKR
notes: Humanized form of 43B7A4, human IgG1/kappa
binding result [1]: no binding (tested: starting concentration 0.4 µg/mL)
binding result [2]: no binding (tested: starting concentration 0.4 µg/mL)
binding result [3]: no binding (tested: starting concentration 0.4 µg/mL)
binding result [4]: no binding (tested: starting concentration 0.4 µg/mL)
binding result [5]: no binding (tested: starting concentration 0.4 µg/mL)
binding result [6]: no binding (tested: starting concentration 0.4 µg/mL)
binding result [7]: no binding (tested: starting concentration 0.4 µg/mL)
